Tested on: MS2 coat protein
Test: apparent KD of MS2 coat protein; designed switch direction (-1 OFF switch, 1 ON switch): -1; higher = weaker reporter binding
In short: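 The apparent KD reported per design is the median over clusters of curve fits to normalised cluster fluorescence. The RNA switches were transcribed on Illumina chips by stalled E. coli RNA polymerase. SNAP-549-labelled MS2 coat protein was titrated from 0.7 or 1.5 nM, doubling up to 3 µM, in Tris-HCl pH 7.5 buffer containing KCl, MgCl2, BSA, DTT, tRNA and Tween-20, with no input, 200 uM small-molecule ligand, or an oligonucleotide input.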

[1] = input ligand: microRNA oligo, concentration not stated
[2] = Eterna round: R95, input ligand: FMN 200 uM
[3] = Eterna round: R95, input ligand: microRNA oligo, concentration not stated
[4] = Eterna round: R95, input ligand: none

Sequence | apparent KD of MS2 coat protein (input ligand: FMN 200 uM) [nM] | apparent KD of MS2 coat protein [1] [nM] | apparent KD of MS2 coat protein (input ligand: none) [nM] | apparent KD of MS2 coat protein [2] [nM] | apparent KD of MS2 coat protein [3] [nM] | apparent KD of MS2 coat protein [4] [nM]
AGAUCUAUCACGAAAGUGAUAGAUCAAAUUAGUUUUUAAACAUGAGGAUCACCCAUGUCCUAGUGGGCUAGUCUUAU [Mat - Sensor v2 - var 2 - Mod - D135] (Eterna round: R96, puzzle: Sensor v2, turn-off variant 2) | 236 | 167 | 239 | – | – | –
AUAAGCUUUGAGAUCCUUAACAUGAGGAUCACCCAUGUUCGUCUUAUGAUGGUCUGAUCCCUGAGGAUCGGACCGUG [Mat - Sensor v3 - turn-off var 1 - JL Mod - D2] (puzzle: Sensor v3, turn-off variant 1) | – | – | – | 277 | 5.74 | 380
CCAGCGCGUGUGAGGAUAUGCUGGUCCUUGGAUCAGCAGAAGGCACAUGAGGAUCACCCAUGUGAGUGCGUUGG [JL bmx4 3.35] (puzzle: Brourd's mod of Exclusion 4) | – | – | – | – | 16.2 | –
UAUUAACAAGUAAGAUCCCACAUGAGGAUCACCCAUGUUCGUCUUAUAGGUACUGUGACACAAAGUGUCACGGUACC [Mod of Eli's R95 Sensor 3, v1 - 87] (Eterna round: R97, puzzle: Sensor, turn-off variant 1) | 36.9 | – | 44.9 | – | – | –
UUCGUGUAAGGAUAUACGACUCAUCCCAAUGGGACGAGCACGUAGAAGGUACAUGAGGAUCACCCAUGUGCUCC [Eddianle] (Eterna round: R96, puzzle: Exclusion 4) | 284 | 33.3 | 39.9 | – | – | –
GUAUGAGGAGGAUAUACGUAUCCUUGACCCUGCUAGCGCGGACAUGAGGAUCACCCAUGUAGAAGGUUUCGACA [Eternabot (L1) Solution 46] (Eterna round: R97, puzzle: Exclusion 2) | 28.8 | – | 38.6 | – | – | –
GAUUAUGCAGGCUUUAGGGACAUGAGGAUCACCCAUGUUCGUCUUAUUGAUCUAGGUACGCUGACGUACCUAGAUCU [JL-sv1-2.34 Brourd mod] (puzzle: Sensor v3, turn-off variant 1) | – | – | – | 19.3 | 42.5 | 20.4
AGGGCUGCUCAGGAUAUCCGUAAAAGCCGAAAAGGAGAAGGGAGCACAUGAGGAUCACCCAUGUGAUCCUAAAA [Orbemaored] (puzzle: Exclusion 6) | – | – | – | 28 | 14.6 | 15.5
GUCAGACGAGGAUAUAGAUUUGAUAACAUGAGGAUCACCCAUGUGAUCGAUAGAUCAGAUUUAGAAGGUGUCUGAC [E5/8-B3] (Eterna round: R97, puzzle: Exclusion 5) | 403 | – | 331 | – | – | –
UGGGUUGUUGUGAGGAUAUACUGUUUGUUUUGUUUGUAGAAGGUACAUGAGGAUCACCCAUGUUGGUUGUGGUU [JR_BME4_Sub031] (puzzle: Brourd's mod of Exclusion 4) | – | – | – | – | 204 | –
AUUUAGUGAGGAUAUGUGGCUUCGAUCGUGAGAUCGAGGCUACAGAAGGCACAUGAGGAUCACCCAUGUUCCUG [salish99_ex4_r4_113] (Eterna round: R97, puzzle: Exclusion 4) | 75.7 | – | 17.5 | – | – | –
GCCGUAAGUGUGAGGAUAUACCUAUGGAUACAUAGGUAGAAGGCACAUGAGGAUCACCCAUGUUCUCAAUCGGC [Eli BMX r4m5] (Eterna round: R97, puzzle: Brourd's mod of Exclusion 4) | 667 | – | 125 | – | – | –
UCACGGGUUUGAGGAUAUAUAUUUAUUAUUUUAAUAGAAGGCAAAGAGAUAGUUUUUUCACUAUACAUGAGGAUCACCCAUGUU [JR_ExcNG1_Sub087] (Eterna round: R96, puzzle: Exclusion NG 1) | – | 27.6 | – | – | – | –
CAUGAUUGGGAAGGAUAUUGACCUAGUUAGCGCCGAGAAGGUCCCUUUCACAUGAGGAUCACCCAUGUGAGUCUGGUGUUCGAG [Ex NG1 #96] (Eterna round: R96, puzzle: Exclusion NG 1) | 37.7 | 26.8 | 37.6 | – | – | –
AGAUUAUGAGGAUAUCGAGUUUAGUACAUGAGGAUCACCCAUGUUAUCCAGGUCUCGUUUCGAGAAGGCAUGAUUC [LRO-Ex5-09] (puzzle: Exclusion 5) | – | – | – | – | 35.3 | –
UCGGUGUCAGGAUAUACAUGAGGAUCACCCAUGUAGAGAGAAGAUAGGGAAAGAGUAGGUAGAAGGGACGAGAG [JR_Exclu3_Sub045] (puzzle: Exclusion 3) | – | – | – | 43.7 | 29.1 | 41.7
UAUUAGCAAGCGAGAUCCCACAUGAGGAUCACCCAUGUGCAUCCAGAAUUACUGGGUGCAAAAGCUCGUCUUAUAUA [Winner reversed engineered 2] (Eterna round: R97, puzzle: Sensor, turn-off variant 1) | 62.4 | – | 58.1 | – | – | –
GCCUUAUCCGUCAGGAUAUACAGCCGCUCGUUGUUGUAGAAGGGACAUGAGGAUCACCCAUGUACGUACCAUUG [alecazam4] (Eterna round: R97, puzzle: Brourd's mod of Exclusion 4) | 27.2 | – | 22.7 | – | – | –
CUUAAGUUAGGAUAUGCGCUACGGAAUCGUGGUUAUAGAUAGCAGAAGGAACUUGAGGAUCACCCAAGUAAAUA [Reerored] (Eterna round: R97, puzzle: Exclusion 4) | 116 | – | 137 | – | – | –
AAAUAGGGAGGAUAUCCAAUAUAUGACAUGAGGAUCACCCAUGUUUCCACUCGUACCUCCGGAGAAGGCCCAUAAU [Ex5 #2] (Eterna round: R97, puzzle: Exclusion 5) | 25.8 | – | 23.9 | – | – | –
GUAAUCUUAGGAUAUUUACGGGUCGACAUGAGGAUCACCCAUGUACCCACGUAGGCCUGAGAAGAAGGAAGAUGAC [EX5 C.24] (Eterna round: R97, puzzle: Exclusion 5) | 22.1 | – | 14.5 | – | – | –
CCGGGUCACGUAAGGAUAUCACGCGCAGACGCUAGUGAGAAGGUACAUGAGGAUCACCCAUGUUCCAUUCGCAG [BmEX4 C.5] (Eterna round: R97, puzzle: Brourd's mod of Exclusion 4) | 17.1 | – | 13.8 | – | – | –
GUUUUGAGACGGAGAUCCGACAUGAGGAUCACCCAUGUCUCACAAGCUUUUUGCUCGUCUUAUACUCCUCUGUUCUC [Elimod 44 - Jieux - Sensor, turn-off variant 1] (Eterna round: R97, puzzle: Sensor, turn-off variant 1) | 17 | – | 17.6 | – | – | –
GGUUACAAGCUAAGAUCCUACAUGAGGAUCACCCAUGUGGUCCGGUGACGUGAGUCACCGGACUUAGCUCGUCUUGU [salish99_S_TOV1_R5_002] (Eterna round: R97, puzzle: Sensor, turn-off variant 1) | 75.4 | – | 80 | – | – | –
AGUUUUAAUGAGGAUAUCGUAUUGGAUAUAGUGCGAGAAGGCAUUACAUGAGGAUCACCCAUGUUUUGUUGGGA [JR_Ex6_Sub008] (Eterna round: R97, puzzle: Exclusion 6) | 58.1 | – | 24.5 | – | – | –
ACAACAAGCUUUUUGUUCGUAGAACAUGAUGCUCUAGUCACAUGAGGAUCACCCAUGUCAGCCAGUUAGAUAGGUGA [JR_SV3TOV2_Sub064] (puzzle: Sensor v3, turn-off variant 2) | – | – | – | 75.2 | 133 | 81.1
GGUACUAUCACCUGAGUGGUAGUGCCAUAAGCUUGUGAUACAUGAGGAUCACCCAUGUCCUCAUUUGCUCGUCUUAU [JL-sv3-2.27 JL mod] (puzzle: Sensor v3, turn-off variant 2) | – | – | – | 486 | 394 | –
ACAACAAGCUUUUUGAACGUAGAACAUGCAGCUCUAGAAACAUGAGGAUCACCCAUGUAAGCCAGUUAGAUAGGUGA [JR_SV3TOV2_Sub067] (puzzle: Sensor v3, turn-off variant 2) | – | – | – | 76.1 | 69.1 | 89.5
GACAGGGCAGGAUAUCGAGAUCCGCACAUGAGGAUCACCCAUGUUCGGUCGAAAGACCGACGAGAAGGGCCGUGUC [Omei Ex5 E5] (Eterna round: R97, puzzle: Exclusion 5) | 651 | – | 869 | – | – | –
AAGGAUCGAGGAUAUACAUAGAUACAGAUUCAUGUAGAACUACAUGAGGAUCACCCAUGUAGAAGGCGAUCCUA [Mat - Same state - Mayanna Mod - D120] (Eterna round: R96, puzzle: Exclusion 2) | 367 | 31.1 | 41.3 | – | – | –

From the supplement of paper PMC9170038
